From PMC13190607

Biological target: SARS-CoV-2 core replication-transcription complex (nsp12 polymerase with nsp7 and nsp8), elongating on RNA (SARS-CoV-2) (UniProt P0DTD1)
Assay: single-molecule magnetic tweezers (RNA synthesis traces)

“SARS-CoV-2 nsp13 helicase (wild type) (from UniProt P0DTD1 5325-5925) (enzyme)” was tested, and the KA of the first helicase (nsp13.1) binding to the core RTC was 0.22 nM⁻¹ and the KA of the second helicase (nsp13.2) binding to RTC-nsp13.1 was 0.47 nM⁻¹.
